# Measured values published in article PMC4608255, “ATP binding to neighbouring subunits and intersubunit allosteric coupling underlie proteasomal ATPase function” (Nature Communications, 2015).
# T1: PAN (Methanocaldococcus jannaschii, UniProt Q58576)
# T1 construct: recombinant from pRSETA, homohexamer
# T1 sequence (Q58576 1-430): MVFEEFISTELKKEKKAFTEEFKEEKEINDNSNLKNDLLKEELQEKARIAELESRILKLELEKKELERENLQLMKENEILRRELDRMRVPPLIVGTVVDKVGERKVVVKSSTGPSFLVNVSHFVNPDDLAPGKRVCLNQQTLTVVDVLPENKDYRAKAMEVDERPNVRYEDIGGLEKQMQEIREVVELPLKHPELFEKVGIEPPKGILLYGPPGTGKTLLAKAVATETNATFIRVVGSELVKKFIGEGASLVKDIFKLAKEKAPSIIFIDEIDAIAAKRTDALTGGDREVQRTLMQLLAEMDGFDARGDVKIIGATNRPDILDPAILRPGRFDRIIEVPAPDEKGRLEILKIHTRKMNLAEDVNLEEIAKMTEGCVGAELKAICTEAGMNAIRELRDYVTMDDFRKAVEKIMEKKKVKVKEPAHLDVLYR
# Tests used:
# PAN = target: T1, PAN; assay: NADH-coupled ATPase assay, Hill equation; assay type: biochemical; details: 50 mM Tris-HCl pH 7.5, 5 mM MgCl2; 100 nM PAN
# Excerpt: NADH-coupled ATPase assay, Hill equation on PAN | Vmax, KM and Hill coefficient (h) values were obtained by nonlinear regression analysis
# archaeal 20S proteasome = archaeal 20S proteasome (UniProt P25156)
# Chain of archaeal 20S proteasome (P25156 whole entry, chain 1 of 2): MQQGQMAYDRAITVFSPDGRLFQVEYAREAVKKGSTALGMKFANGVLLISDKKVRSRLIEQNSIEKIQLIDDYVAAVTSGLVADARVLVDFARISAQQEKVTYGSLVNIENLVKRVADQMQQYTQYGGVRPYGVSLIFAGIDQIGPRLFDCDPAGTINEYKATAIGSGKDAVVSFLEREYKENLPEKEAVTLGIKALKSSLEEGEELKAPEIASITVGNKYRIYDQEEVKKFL
# Chain of archaeal 20S proteasome (chain, as listed by the source, chain 2 of 2): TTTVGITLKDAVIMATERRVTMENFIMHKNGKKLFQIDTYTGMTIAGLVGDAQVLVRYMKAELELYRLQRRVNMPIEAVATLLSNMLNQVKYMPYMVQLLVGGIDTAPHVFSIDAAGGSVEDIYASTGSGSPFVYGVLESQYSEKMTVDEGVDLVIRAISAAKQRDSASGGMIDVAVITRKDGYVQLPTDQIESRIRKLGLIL
# [1] = target: the molecule itself; assay: native gel or EMSA; native gel of the PAN mutants; conditions not given
Molecule,stoichiometry N [1],other results
Nc1ncnc2c1ncn2[C@@H]1O[C@H](COP(=O)(O)OP(=O)(O)OP(=O)(O)O)[C@@H](O)[C@H]1O [ATP],–,Km (PAN): 261 ± 8 µM
PAN wild type (enzyme) MVFEEFISTELKKEKKAFTEEFKEEKEINDNSNLKNDLLKEELQEKARIAELESRILKLELEKKELERENLQLMKENEILRRELDRMRVPPLIVGTVVDKVGERKVVVKSSTGPSFLVNVSHFVNPDDLAPGKRVCLNQQTLTVVDVLPENKDYRAKAMEVDERPNVRYEDIGGLEKQMQEIREVVELPLKHPELFEKVGIEPPKGILLYGPPGTGKTLLAKAVATETNATFIRVVGSELVKKFIGEGASLVKDIFKLAKEKAPSIIFIDEIDAIAAKRTDALTGGDREVQRTLMQLLAEMDGFDARGDVKIIGATNRPDILDPAILRPGRFDRIIEVPAPDEKGRLEILKIHTRKMNLAEDVNLEEIAKMTEGCVGAELKAICTEAGMNAIRELRDYVTMDDFRKAVEKIMEKKKVKVKEPAHLDVLYR,–,LFP peptide hydrolysis by the 20S (20 nM) with PAN (80 nM) and 10 μM ATPγS (gate opening) (archaeal 20S proteasome): 9 fold
"PAN-R328A (enzyme, UniProt Q58576 1-430, looked up, PAN, archaeal proteasomal ATPase; Vector pRSETA; source: expression vector in pRSETA made by site-directed mutagenesis) MVFEEFISTELKKEKKAFTEEFKEEKEINDNSNLKNDLLKEELQEKARIAELESRILKLELEKKELERENLQLMKENEILRRELDRMRVPPLIVGTVVDKVGERKVVVKSSTGPSFLVNVSHFVNPDDLAPGKRVCLNQQTLTVVDVLPENKDYRAKAMEVDERPNVRYEDIGGLEKQMQEIREVVELPLKHPELFEKVGIEPPKGILLYGPPGTGKTLLAKAVATETNATFIRVVGSELVKKFIGEGASLVKDIFKLAKEKAPSIIFIDEIDAIAAKRTDALTGGDREVQRTLMQLLAEMDGFDARGDVKIIGATNRPDILDPAILAPGRFDRIIEVPAPDEKGRLEILKIHTRKMNLAEDVNLEEIAKMTEGCVGAELKAICTEAGMNAIRELRDYVTMDDFRKAVEKIMEKKKVKVKEPAHLDVLYR",6,–
"PAN-R331A (enzyme, UniProt Q58576 1-430, looked up, PAN, archaeal proteasomal ATPase; Vector pRSETA; source: expression vector in pRSETA made by site-directed mutagenesis) MVFEEFISTELKKEKKAFTEEFKEEKEINDNSNLKNDLLKEELQEKARIAELESRILKLELEKKELERENLQLMKENEILRRELDRMRVPPLIVGTVVDKVGERKVVVKSSTGPSFLVNVSHFVNPDDLAPGKRVCLNQQTLTVVDVLPENKDYRAKAMEVDERPNVRYEDIGGLEKQMQEIREVVELPLKHPELFEKVGIEPPKGILLYGPPGTGKTLLAKAVATETNATFIRVVGSELVKKFIGEGASLVKDIFKLAKEKAPSIIFIDEIDAIAAKRTDALTGGDREVQRTLMQLLAEMDGFDARGDVKIIGATNRPDILDPAILRPGAFDRIIEVPAPDEKGRLEILKIHTRKMNLAEDVNLEEIAKMTEGCVGAELKAICTEAGMNAIRELRDYVTMDDFRKAVEKIMEKKKVKVKEPAHLDVLYR",6,–
"PAN-R328/331A (enzyme, UniProt Q58576 1-430, looked up, PAN, archaeal proteasomal ATPase; Vector pRSETA; also called double mutant; double-arginine mutant; source: expression vector in pRSETA made by site-directed mutagenesis) MVFEEFISTELKKEKKAFTEEFKEEKEINDNSNLKNDLLKEELQEKARIAELESRILKLELEKKELERENLQLMKENEILRRELDRMRVPPLIVGTVVDKVGERKVVVKSSTGPSFLVNVSHFVNPDDLAPGKRVCLNQQTLTVVDVLPENKDYRAKAMEVDERPNVRYEDIGGLEKQMQEIREVVELPLKHPELFEKVGIEPPKGILLYGPPGTGKTLLAKAVATETNATFIRVVGSELVKKFIGEGASLVKDIFKLAKEKAPSIIFIDEIDAIAAKRTDALTGGDREVQRTLMQLLAEMDGFDARGDVKIIGATNRPDILDPAILAPGAFDRIIEVPAPDEKGRLEILKIHTRKMNLAEDVNLEEIAKMTEGCVGAELKAICTEAGMNAIRELRDYVTMDDFRKAVEKIMEKKKVKVKEPAHLDVLYR",6,–
